Test system: MS2 coat protein
Test: apparent KD of MS2 coat protein; designed switch direction (-1 OFF switch, 1 ON switch): -1; higher = weaker reporter binding
Method in brief: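 The reported apparent KD is a per-design median over clusters, from curve fits of normalised cluster fluorescence. Protein titrations used SNAP-549-labelled MS2 coat protein, doubled from 0.7 or 1.5 nM to 3 µM, in Tris-HCl pH 7.5 buffer with KCl, MgCl2, BSA, DTT, tRNA and Tween-20, with no input, 200 uM small-molecule ligand, or an oligonucleotide input. The RNA switches were transcribed on Illumina chips by stalled E. coli RNA polymerase.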

[1] = input ligand: microRNA oligo, concentration not stated

| Sequence | apparent KD of MS2 coat protein (input ligand: FMN 200 uM) [nM] | apparent KD of MS2 coat protein [1] [nM] | apparent KD of MS2 coat protein (input ligand: none) [nM] |
| --- | --- | --- | --- |
| ACAUGAGGAUCACCCAUGUCAGGCUGGUCCGCUCCGGCUGUUGAGGAUAUAGCACGGUGUCCGCGCUAGAAGGUGAGGGCCGGC [Aenatbe mod 31] (Eterna round: R96, puzzle: Exclusion NG 3) | 24.8 | 15.7 | 26.4 |
| ACAUGAGGAUCACCCAUGUCCGGCUGGUCUGGUCCGGCUGUCGAGGAUAUAGUCCGGUGUUCGCGCUAGAAGGCGGGAGCUGGA [Aenatbe mod 50] (Eterna round: R96, puzzle: Exclusion NG 3) | 144 | 62.2 | 85 |
| ACAUGAGGAUCACCCAUGUCCGGCUGGUCUGUUCCGGCUGUCGAGGAUAUAGUCCGGUGUUCGCGCUAGAAGGCGGGAGCUGGA [Aenatbe mod 51] (Eterna round: R96, puzzle: Exclusion NG 3) | 67.5 | 34.5 | 46.2 |
| ACAUGAGGAUCACCCAUGUCCGGCUGGUCUGUUUCGGCUGUCGAGGAUAUAGUUCGGUGUUCGCGCUAGAAGGUGGGAGCUGGC [Aenatbe mod 58] (Eterna round: R96, puzzle: Exclusion NG 3) | 160 | 106 | 134 |
| ACAUGAGGAUCACCCAUGUCGAGUACAUGAGGAUCACCCAUGUAGGAUAUGGUUCGCUUUGCGUGCUAGAAGGAUAUGUGUUGC [salish99_ExNG3_r04_509] (Eterna round: R96, puzzle: Exclusion NG 3) | 351 | 199 | 241 |
| ACAUGAGGAUCACCCAUGUCGGGCUGGUCCGCUCCGGCUGUUGAGGAUAUAGCCCGGUAUCCGCGCUAGAAGGUGAGGGCCGGC [Aenatbe mod 29] (Eterna round: R96, puzzle: Exclusion NG 3) | 35.6 | 29.5 | 31.4 |
| ACAUGAGGAUCACCCAUGUCUGGCUGGUCCGCUCCGGCUGUUGAGGAUAUAGCUCGGUGUCCGCGCUAGAAGGUGAGGGCCGGC [Aenatbe mod 33] (Eterna round: R96, puzzle: Exclusion NG 3) | 22.4 | 18.6 | 25.1 |
| ACAUGAGGAUCACCCAUGUCUGGCUGGUCCGUCUCGGCUGUCGAGGAUAUGGCUCGGUGUCCGCGCUAGAAGGCGGGAGCCGGA [Aenatbe mod 77] (Eterna round: R96, puzzle: Exclusion NG 3) | 685 | 58.2 | 78.8 |
| ACAUGAGGAUCACCCAUGUCUGGCUGGUCUGCUCCGGCUGUUGAGGAUAUAGUCCGGUGUUCGCGCUAGAAGGCGAGGGCUGGA [Aenatbe mod 42] (Eterna round: R96, puzzle: Exclusion NG 3) | 42.5 | 21.9 | 48.4 |
| ACAUGAGGAUCACCCAUGUCUGGCUGGUCUGCUCCGGCUGUUGAGGAUAUAGUUCGGUGUUCGCGCUAGAAGGUGAGGGCUGGC [Aenatbe mod 37] (Eterna round: R96, puzzle: Exclusion NG 3) | 32.2 | 23.1 | 35.6 |
| ACAUGAGGAUCACCCAUGUGAAAACAAUGGCUGACUUUGAGACAGGAUAUUCGUGCAUAUCAAACGAAGAAGGGUCAUUACUGG [Deportation 94 - Jieux - Exclusion NG 3] (Eterna round: R96, puzzle: Exclusion NG 3) | 42.2 | 26.4 | 37.7 |
| ACAUGAGGAUCACCCAUGUGAAAAGAAUGGCUGACACAGAGAUAGGAUAUAUGUGCAUAUCUAACGUAGAAGGGUCAUGACUGG [Deportation 78 - Jieux - Exclusion NG 3] (Eterna round: R96, puzzle: Exclusion NG 3) | – | 26.5 | – |
| ACAUGAGGAUCACCCAUGUGACAAUAAUGGCUGAUACAGAAACAGGAUAUUCGUGAAUAUCUAACGAAGAAGGGUUAUGACUGG [Deportation 68 - Jieux - Exclusion NG 3] (Eterna round: R96, puzzle: Exclusion NG 3) | 36.4 | 41 | 44 |
| ACAUGAGGAUCACCCAUGUGACAAUAAUGGCUGAUACAGAGACAGGAUAUAGGUGCAUAUCUAACCUAGAAGGGUCAUGACUGG [Deportation 72 - Jieux - Exclusion NG 3] (Eterna round: R96, puzzle: Exclusion NG 3) | 29.1 | 30.6 | 36.6 |
| ACAUGAGGAUCACCCAUGUGACAAUAAUGGCUGAUAUAGAAACAGGAUAUUCGUGAAUAUCUAACGAAGAAGGGUUAUGACUGG [Deportation 67 - Jieux - Exclusion NG 3] (Eterna round: R96, puzzle: Exclusion NG 3) | 49 | 38.3 | 51.8 |
| ACAUGAGGAUCACCCAUGUGACCACAAUGGCUGAUGUAACAACAGGAUAUGCGUGAAUAUCUAACGCAGAAGGGUUUUGACUGG [Deportation 59 - Jieux - Exclusion NG 3] (Eterna round: R96, puzzle: Exclusion NG 3) | 84.5 | 71.5 | 91.1 |
| ACAUGAGGAUCACCCAUGUGACCACAAUGGCUGAUGUAACGACAGGAUAUUCGUGAAUAUCUAACGAAGAAGGGUCAUGACUGG [Deportation 62 - Jieux - Exclusion NG 3] (Eterna round: R96, puzzle: Exclusion NG 3) | 98.8 | 52.7 | 60.2 |
| ACAUGAGGAUCACCCAUGUGACCACGAUGGCUGAUGUAGACCUAGGAUAUGUGUGAAUAUCUAUCACAGAAGGAGGUUGACUGG [Deportation 51 - Jieux - Exclusion NG 3] (Eterna round: R96, puzzle: Exclusion NG 3) | 44.4 | 34.3 | 42.7 |
| ACAUGAGGAUCACCCAUGUGACCACGAUGGCUGAUGUAGAGAUAGGAUAUGUGUGAAUAUCUAUCACAGAAGGAUCUUGACUGG [Deportation 53 - Jieux - Exclusion NG 3] (Eterna round: R96, puzzle: Exclusion NG 3) | 25.2 | 22.4 | 28.5 |
| ACAUGAGGAUCACCCAUGUGCACGUAAUGGCUCAUGUAGAGUGAGGAUAUGUGUGACGAACGAGCACAGAAGGCACAAGACUGG [Deportation 13 - Jieux - Exclusion NG 3] (Eterna round: R96, puzzle: Exclusion NG 3) | 116 | 67.3 | 97.4 |
| ACAUGAGGAUCACCCAUGUGCCCAUCUAGCACAUGUCCUCGCUAGGAUAUGUAGGCCUCGACGCCGCAGAAGGAGCUAAAAGAG [Raatlaan] (Eterna round: R96, puzzle: Exclusion NG 3) | 129 | 44.6 | 64.5 |
| ACAUGAGGAUCACCCAUGUGCCCAUCUAGCACAUGUCCUCGCUAGGAUAUGUAGGCCUCGAGGCCGCAGAAGGAGCUAAAAGAG [Atgequa] (Eterna round: R96, puzzle: Exclusion NG 3) | 453 | 82.8 | 127 |
| ACAUGAGGAUCACCCAUGUGGACGAAAAGGCUCAUGUAGAGUGAGGAUAUGUGAGACGAACGAGAACAGAAGGCACAAGACAGG [Deportation 5 - Jieux - Exclusion NG 3] (Eterna round: R96, puzzle: Exclusion NG 3) | 17.4 | 22.3 | 20 |
| ACAUGAGGAUCACCCAUGUUAACGAAAAGGCUCAUGUAGAGUGAGGAUAUGUGAGACGAACGAGAACAGAAGGCACAAGACAGG [Deportation 2 - Jieux - Exclusion NG 3] (Eterna round: R96, puzzle: Exclusion NG 3) | 24.2 | 15.2 | 22.3 |
| ACAUGAGGAUCACCCAUGUUUGGCUGGUUUUCUCCGGCUGUCGAGGAUAUAGUCCGGUAUCCGCGCUAGAAGGUGAGGGUUGGC [Aenatbe mod 4] (Eterna round: R96, puzzle: Exclusion NG 3) | 22.5 | 14.2 | 22.8 |
| ACAUGAGGAUCACCCAUGUUUGUUGGGUACUCUUUUUACAGCAAGGAUAUGCAUGUUUUUUUUACGCAGAAGGUGCUGGACGUC [JR_ExcNG3_Sub068] (Eterna round: R96, puzzle: Exclusion NG 3) | 381 | 163 | 653 |
| ACAUGAGGAUCACCCAUGUUUUUCGGGUACUCUUGAUACAGCAAGGAUAUGCAUUAUUUAUGUACGCAGAAGGUGCAUUACGUC [JR_ExcNG3_Sub064] (Eterna round: R96, puzzle: Exclusion NG 3) | 104 | 67 | 71.9 |
| ACAUGAGGAUCACCCAUGUUUUUCGGGUACUCUUUUUACAGCAAGGAUAUGCAUUAUUUUUUUACGCAGAAGGUGCUUUACGUC [JR_ExcNG3_Sub066] (Eterna round: R96, puzzle: Exclusion NG 3) | – | 116 | – |
| ACAUGUAAUGCAGGAUAUGGGACACAUGAGGAUCACCCAUGUGACCAUAUGUAAUGCUAAGAGUCUCAGAAGGGUAUGUACAUG [Ex NG2 #46] (Eterna round: R96, puzzle: Exclusion NG 2) | 15.2 | 7.56 | 12.9 |
